{"source": "patent US20230340160A1", "about": "(published 2023)", "key": {"[1]": {"biological_target": "T1, human CEA expressed on tumor cells (human, UniProt P06731 35-702)", "T1 construct": "whole, on cells; also called Carcinoembryonic antigen; Carcinoembryonic antigen-related cell adhesion molecule 5", "T1 sequence (looked up)": "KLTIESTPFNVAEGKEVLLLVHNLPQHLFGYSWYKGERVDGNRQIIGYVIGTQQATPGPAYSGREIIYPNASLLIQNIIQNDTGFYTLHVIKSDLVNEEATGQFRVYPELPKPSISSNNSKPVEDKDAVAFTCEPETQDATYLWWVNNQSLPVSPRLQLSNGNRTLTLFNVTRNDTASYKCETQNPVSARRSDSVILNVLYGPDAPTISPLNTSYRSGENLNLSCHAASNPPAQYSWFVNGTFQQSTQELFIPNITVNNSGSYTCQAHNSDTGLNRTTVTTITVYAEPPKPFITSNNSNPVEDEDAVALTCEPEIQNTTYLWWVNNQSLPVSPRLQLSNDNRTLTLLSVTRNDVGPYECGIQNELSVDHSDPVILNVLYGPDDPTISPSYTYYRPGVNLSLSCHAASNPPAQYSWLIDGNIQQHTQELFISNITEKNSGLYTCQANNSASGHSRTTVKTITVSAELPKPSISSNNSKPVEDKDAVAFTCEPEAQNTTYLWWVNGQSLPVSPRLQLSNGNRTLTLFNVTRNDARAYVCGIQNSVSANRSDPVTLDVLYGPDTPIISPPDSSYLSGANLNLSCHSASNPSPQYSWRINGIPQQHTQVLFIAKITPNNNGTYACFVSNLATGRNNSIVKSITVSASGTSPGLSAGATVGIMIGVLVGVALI", "assay": "flow cytometry on LS-174T cells", "experimental": "Binding of the different bispecific constructs to CD3 on Jurkat cells (ATCC #TIB-152), and the respective tumor antigen on target cells, was determined by FACS. Briefly, cells were harvested, counted and checked for viability. 0.15 - 0.2 million cells per well (in PBS containing 0.1% BSA; 90 µl) were plated in a round-bottom 96-well plate and incubated with the indicated concentration of the bispecific constructs and corresponding IgG controls (10 µl) for 30 min at 4° C. For a better comparison, all constructs and IgG controls were normalized to same molarity. […] Bound constructs were detected using a FACSCantoII (Software FACS Diva). The “(scFv)₂” molecule was detected using a FITC-conjugated anti-His antibody (Lucerna, #RHIS-45F-Z). […] Unless otherwise indicated, cells were fixed with 100 µl/well fixation buffer (BD #554655) for 15 min at 4° C. in the dark, centrifuged for 6 min at 400 × g and kept in 200 µl/well PBS containing 0.1% BSA until the samples were measured with FACS CantoII. EC50 values were calculated using the GraphPad Prism software.\n(§1) As a control, the equivalent maximum concentration of the corresponding IgGs and the background staining due to the labeled 2ndary antibody (goat anti-human FITC-conjugated AffiniPure F(ab′)2 Fragment, Fcγ Fragment-specific, Jackson Immuno Research Lab # 109-096-098) were assessed as well."}, "[2]": {"biological_target": "T1, human CEA expressed on tumor cells", "assay": "cell-based or functional assay"}, "[3]": {"biological_target": "T2, human CD3 expressed on Jurkat cells (human, UniProt P07766 23-207)", "T2 construct": "CD3 complex on Jurkat cells (ATCC TIB-152); also called huCD3", "T2 sequence (P07766 23-207 limits assumed)": "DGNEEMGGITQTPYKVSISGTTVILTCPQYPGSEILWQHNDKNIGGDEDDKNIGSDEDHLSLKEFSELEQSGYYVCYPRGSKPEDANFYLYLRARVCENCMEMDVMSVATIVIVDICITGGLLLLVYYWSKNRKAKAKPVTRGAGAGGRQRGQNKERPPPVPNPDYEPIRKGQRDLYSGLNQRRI", "assay": "flow cytometry on Jurkat cells", "experimental": "Binding of the different bispecific constructs to CD3 on Jurkat cells (ATCC #TIB-152), and the respective tumor antigen on target cells, was determined by FACS. Briefly, cells were harvested, counted and checked for viability. 0.15 - 0.2 million cells per well (in PBS containing 0.1% BSA; 90 µl) were plated in a round-bottom 96-well plate and incubated with the indicated concentration of the bispecific constructs and corresponding IgG controls (10 µl) for 30 min at 4° C. For a better comparison, all constructs and IgG controls were normalized to same molarity. After the incubation, cells were centrifuged (5 min, 350 × g), washed with 150 µl PBS containing 0.1% BSA, resuspended and incubated for further 30 min at 4° C. with 12 µl/well of a FITC-or PE-conjugated secondary antibody. Bound constructs were detected using a FACSCantoII (Software FACS Diva). The “(scFv)₂” molecule was detected using a FITC-conjugated anti-His antibody (Lucerna, #RHIS-45F-Z). For all other molecules, a FITC- or PE-conjugated AffiniPure F(ab′)2 Fragment goat anti-human IgG Fcγ Fragment Specific (Jackson Immuno Research Lab # 109-096-098 / working solution 1:20, or #109-116-170 / working solution 1:80, respectively) was used. Cells were washed by addition of 120 µl/well PBS containing 0.1% BSA and centrifugation at 350 × g for 5 min. A second washing step was performed with 150 µl/well PBS containing 0.1% BSA. Unless otherwise indicated, cells were fixed with 100 µl/well fixation buffer (BD #554655) for 15 min at 4° C. in the dark, centrifuged for 6 min at 400 × g and kept in 200 µl/well PBS containing 0.1% BSA until the samples were measured with FACS CantoII. EC50 values were calculated using the GraphPad Prism software.\nas §1"}}}
{"binder": "CEA/CD3 “2+1 IgG Crossfab, inverted (CL/CH1)”; CL/CH1 exchange (CH1A1A/V9) (bispecific antibody, 66 is the DNA of 65; also called CL/CH1-exchange construct) heavy 1: not shown heavy 2: QVQLVQSGAEVKKPGASVKVSCKASGYTFTEFGMNWVRQAPGQGLEWMGWINTKTGEATYVEEFKGRVTFTTDTSTSTAYMELRSLRSDDTAVYYCARWDFAYYVEAMDYWGQGTTVTVSSASTKGPSVFPLAPSSKSTSGGTAALGCLVKDYFPEPVTVSWNSGALTSGVHTFPAVLQSSGLYSLSSVVTVPSSSLGTQTYICNVNHKPSNTKVDKKVEPKSCDKTHTCPPCPAPEAAGGPSVFLFPPKPKDTLMISRTPEVTCVVVDVSHEDPEVKFNWYVDGVEVHNAKTKPREEQYNSTYRVVSVLTVLHQDWLNGKEYKCKVSNKALGAPIEKTISKAKGQPREPQVCTLPPSRDELTKNQVSLSCAVKGFYPSDIAVEWESNGQPENNYKTTPPVLDSDGSFFLVSKLTVDKSRWQQGNVFSCSVMHEALHNHYTQKSLSLSPGK light 1: DIQMTQSPSSLSASVGDRVTITCKASAAVGTYVAWYQQKPGKAPKLLIYSASYRKRGVPSRFSGSGSGTDFTLTISSLQPEDFATYYCHQYYTYPLFTFGQGTKLEIKRTVAAPSVFIFPPSDEQLKSGTASVVCLLNNFYPREAKVQWKVDNALQSGNSQESVTEQDSKDSTYSLSSTLTLSKADYEKHKVYACEVTHQGLSSPVTKSFNRGEC light 2: DIQMTQSPSSLSASVGDRVTITCRASQDIRNYLNWYQQKPGKAPKLLIYYTSRLESGVPSRFSGSGSGTDYTLTISSLQPEDFATYYCQQGNTLPWTFGQGTKVEIKSSASTKGPSVFPLAPSSKSTSGGTAALGCLVKDYFPEPVTVSWNSGALTSGVHTFPAVLQSSGLYSLSSVVTVPSSSLGTQTYICNVNHKPSNTKVDKKVEPKSC", "values": [{"measurement": "EC50", "setting": "[1]", "value": 6.7, "unit": "nM"}, {"measurement": "EC50 of killing (LDH release) of LS-174T cells, human PBMCs, E:T 10:1, 28 h", "setting": "[2]", "value": 0.673, "unit": "nM"}, {"measurement": "EC50 of killing (LDH release) of MKN-45 cells, human PBMCs, E:T 10:1, 28 h", "setting": "[2]", "value": 0.115, "unit": "nM"}, {"measurement": "EC50", "setting": "[3]", "value": 3.9, "unit": "nM"}]}
{"binder": "CEA/CD3 “2+1 IgG Crossfab, inverted (VL/VH)”; VL/VH exchange (CH1A1A/V9) (bispecific antibody, also called VL/VH-exchange construct) heavy 1: not shown heavy 2: QVQLVQSGAEVKKPGASVKVSCKASGYTFTEFGMNWVRQAPGQGLEWMGWINTKTGEATYVEEFKGRVTFTTDTSTSTAYMELRSLRSDDTAVYYCARWDFAYYVEAMDYWGQGTTVTVSSASTKGPSVFPLAPSSKSTSGGTAALGCLVKDYFPEPVTVSWNSGALTSGVHTFPAVLQSSGLYSLSSVVTVPSSSLGTQTYICNVNHKPSNTKVDKKVEPKSCDKTHTCPPCPAPEAAGGPSVFLFPPKPKDTLMISRTPEVTCVVVDVSHEDPEVKFNWYVDGVEVHNAKTKPREEQYNSTYRVVSVLTVLHQDWLNGKEYKCKVSNKALGAPIEKTISKAKGQPREPQVCTLPPSRDELTKNQVSLSCAVKGFYPSDIAVEWESNGQPENNYKTTPPVLDSDGSFFLVSKLTVDKSRWQQGNVFSCSVMHEALHNHYTQKSLSLSPGK light 1: DIQMTQSPSSLSASVGDRVTITCKASAAVGTYVAWYQQKPGKAPKLLIYSASYRKRGVPSRFSGSGSGTDFTLTISSLQPEDFATYYCHQYYTYPLFTFGQGTKLEIKRTVAAPSVFIFPPSDEQLKSGTASVVCLLNNFYPREAKVQWKVDNALQSGNSQESVTEQDSKDSTYSLSSTLTLSKADYEKHKVYACEVTHQGLSSPVTKSFNRGEC light 2: EVQLVESGGGLVQPGGSLRLSCAASGYSFTGYTMNWVRQAPGKGLEWVALINPYKGVSTYNQKFKDRFTISVDKSKNTAYLQMNSLRAEDTAVYYCARSGYYGDSDWYFDVWGQGTLVTVSSASVAAPSVFIFPPSDEQLKSGTASVVCLLNNFYPREAKVQWKVDNALQSGNSQESVTEQDSKDSTYSLSSTLTLSKADYEKHKVYACEVTHQGLSSPVTKSFNRGEC", "values": [{"measurement": "EC50", "setting": "[1]", "value": 9.3, "unit": "nM"}, {"measurement": "EC50 of killing (LDH release) of LS-174T cells, human PBMCs, E:T 10:1, 28 h", "setting": "[2]", "value": 0.955, "unit": "nM"}, {"measurement": "EC50 of killing (LDH release) of MKN-45 cells, human PBMCs, E:T 10:1, 28 h", "setting": "[2]", "value": 0.243, "unit": "nM"}, {"measurement": "EC50", "setting": "[3]", "value": 4.6, "unit": "nM"}]}
